Assay results taken from patent US20050019833A1, “Proteins capable of binding to environmental hormones and process for producing the same” (priority 2002, published 2005).

Assays:
[1] = indirect competitive ELISA, nonylphenoxyacetic acid standard solution; type: binding; details: FIG. 5; cross-reactivity (%)=[IC50 of NP10EO/IC50 of test compound]x100
Description: (§1) A nonylphenoldecaethoxylate (NPLOEO) standard solution was used in (A), a nonylphenoxyacetic acid (NPLEC) standard solution was used in (B), and a nonylphenol (NP) standard solution was used in (C).
(§2) Moreover, a nonylphenoldecaethoxylate (NPLOEO) standard solution was used in (A) and (B), a nonylphenoxyacetic acid (NPLEC) standard solution was used in (C) and (D) and a nonylphenol (NP) standard solution was used in (E) and (F).
(§3) A conjugate (5 μg/mL) of hapten and bovine serum albumin (BSA) (100 μL/each well) was added to a 96-well microtiter plate and stood at 4° C. overnight. After removing the liquid from the well, 300 μL of Block Ace (purchased from Dainippon Pharmaceutical Co., Ltd.) 4-fold diluted with distillated water was added to each well and stood at 4° C. overnight. After removing the liquid from the well, a standard solution (50 μL) of nonylphenol decaethoxylate stepwise diluted with phosphate buffer (10 mM sodium phosphate (purchased from Nacalai Tesque, Inc.), 150 mM NaCl, pH 7.2) was added to each well. […] The mixture was incubated at 25° C. for 1 hr and each well was washed 4 times with a phosphate buffer. Then, 100 μL of mouse anti-HSV tagged antibody (purchased from Amersham Pharmacia Biotech), diluted with a phosphate buffer to 0.1 μg/mL, was added to each well and the mixture was incubated at 25° C. for 1 hr. […] The absorbance at wavelength of 450 nm was measured.

[2] = indirect competitive ELISA, nonylphenol standard solution; type: binding; details: FIG. 5; cross-reactivity (%)=[IC50 of NP10EO/IC50 of test compound]x100
Description: as §1, §2, §3

Molecule | cross-reactivity with NP1EC [1] | cross-reactivity with NP [2]
anti-alkylphenol monoclonal antibody: monoclonal antibody (IgG2b, kappa) produced by mouse hybridoma AP-14 (FERM BP-6633) (antibody, V domains shown, Mouse) VH: QVQLQQSAAELARPGASVKMSCKASGYRFTRYTMHWVKQRPGQGLEWIGNINPSSGDTEYNQKFKDKTTLTADKSSTTAYMQLSSLTSEDSAVYYCATPIFYYGSRYVRYEMDYWGQGTSVTVSS VL: DIVMTQAAFSNPVTLGTSTSISCRSTKSLLHSNGITYLYWYLQKPGQSPQLLIYQMSNLASGVPDRFSSSGSGTDFTLRISRVEAEDVGVYYCAQNLELPYTFGGGTKLEIKR | shows cross-reactivity | shows cross-reactivity
anti-alkylphenolethoxylate monoclonal antibody: monoclonal antibody (IgG1, kappa) produced by mouse hybridoma MOF3-139 (FERM BP-6059) (antibody, V domains shown, Mouse) VH: QVQLQQSGAELMKPGASVKISCKVTGYTFRSYWIEWVKQRPGHGLEWIGEILVGSGSTKYNEKFKGKATITAQTSSNTVYMQLSSLTSEDSAVYYCARPFFGSRYDYSDFWGQGTTLTVSS VL: DIVMTQAAFSNPVTLGSSASISCRSSKSLLHRNGITYLYWYLQKPGQSPQVLIYQMSNLASGVPDRFSSSGSGTDFTLRISRVEAEDVGVYYCAQNLELPYTFGGGTKLEIKR | hardly shows cross-reactivity | hardly shows cross-reactivity
